Publication PMC9934072, “The mechanism of thia-Michael addition catalyzed by LanC enzymes” (Proceedings of the National Academy of Sciences of the …, 2023)
Blank lines part the entries; values can stand above or below the molecule they belong to. Square brackets hold non-standard residues; d marks the D form. Ends that are not written are not given here. Dhb = C/C=C(\N)C(=O)O

How the values were obtained:
[1] = biological target: (Z)-Dhb-containing 13-mer Erk peptide (DHTGFL-Dhb-EYVATR)
[2] = biological target: T1, LanCL1 Wild Type (human LanC-like protein 1) (human, UniProt O43813 1-399); test: fluorescence polarisation; competition: 20 μM LanCL1 WT, 20 nM fluorescein-Dha-Erk, acetyl peptide from 1000 μM in 2-fold dilutions; 15 min incubation; triplicates; dose-response fit, Ki = IC50/(1+[L]/Kd); settings: both partners purified
T1 construct: LanC-like protein 1 (LanCL1), human; also called LanCL1 WT; WT-LanCL1; source: E. coli Rosetta 2 (DE3), purified (HisTrap Ni-NTA, PD-10 desalting)

[3] = biological target: T2, human LanCL1, wild type (His6-LanCL1) (human, UniProt O43813 1-399); test: crystal structure; cocrystals of His6-LanCL1 with GSH soaked in precipitant solution with 2 to 5 mM Dhb-Erk peptide (30, 60 or 90 min); 1.91 Å; the crystal holds the product of GSH addition to the peptide; settings: both partners purified
T2 construct: LanCL1 (LanC-like protein 1), human; The tag is named on the protein for crystallisation; for the fluorescence polarisation nothing is said of it; also called WT LanCL1; native LanCL1; source: E. coli Rosetta(DE3), pET15b, purified (HisTrap, Superdex 200)
T2 sequence (O43813 whole entry): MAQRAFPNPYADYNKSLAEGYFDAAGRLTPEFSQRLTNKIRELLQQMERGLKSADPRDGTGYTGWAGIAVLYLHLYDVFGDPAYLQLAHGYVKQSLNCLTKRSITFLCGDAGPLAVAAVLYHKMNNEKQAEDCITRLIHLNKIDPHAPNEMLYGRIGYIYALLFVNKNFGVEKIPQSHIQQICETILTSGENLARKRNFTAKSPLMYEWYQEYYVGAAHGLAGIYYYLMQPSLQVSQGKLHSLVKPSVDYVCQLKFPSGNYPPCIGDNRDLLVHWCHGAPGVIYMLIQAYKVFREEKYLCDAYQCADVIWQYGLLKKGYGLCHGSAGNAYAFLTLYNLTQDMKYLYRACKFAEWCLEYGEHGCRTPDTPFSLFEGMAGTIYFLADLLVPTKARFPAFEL

T1 sequence (O43813 whole entry): as above

Molecule: LanCL1 C264A/H277K (from UniProt O43813 1-399) (enzyme)
kcat/K (m,peptide) of GSH addition to (Z)-Dhb-Erk peptide; substrate saturation could not be achieved [1]: 2.67 M⁻¹ s⁻¹

Molecule: LanCL1 C264A/H277N (from UniProt O43813 1-399) (enzyme)
K (m,peptide) of GSH addition to (Z)-Dhb-Erk peptide (LC-MS initial rates, saturating GSH) [1]: 417 µM

Molecule: LanCL1 C264A/H277A (from UniProt O43813 1-399) (enzyme)
K (m,peptide) of GSH addition to (Z)-Dhb-Erk peptide (LC-MS initial rates, saturating GSH) [1]: 240 µM

Molecule: LanCL1 C264A/H277Y (from UniProt O43813 1-399) (enzyme)
K (m,peptide) of GSH addition to (Z)-Dhb-Erk peptide (LC-MS initial rates, saturating GSH) [1]: 69 µM

Further lines, results first:

kcat/K (m,peptide) of GSH addition to (Z)-Dhb-Erk peptide; substrate saturation could not be achieved [1]: 6.17 M⁻¹ s⁻¹
Molecule: LanCL1 C264A/H277D (from UniProt O43813 1-399) (enzyme)

K (m,peptide) of GSH addition to (Z)-Dhb-Erk peptide (LC-MS initial rates, saturating GSH) [1]: 85 µM
Molecule: LanCL1 C264A (from UniProt O43813 1-399) (enzyme)

IC50 [2]: 850 ± 490 µM
Ki [2]: 849 ± 489 µM
B1: acetyl-Ala-Erk peptide (peptide)
peptide: Ac-DHTGFLAEYVATR
notes: Numbers count on: the synthetic 13-mer; Its preparation is not described; also called Ac-Ala-Erk

binding result [3]: binds
B2: (Z)-Dhb-containing 13-mer Erk peptide (DHTGFL-Dhb-EYVATR) (peptide)
peptide: DHTGFL[Dhb]EYVATR
modifications: also: in the crystal Dhb reacted with GSH to form a methyllanthionine
notes: In PDB 8CZK density was seen only for the GFL-Dhb-EY segment, covalently joined to glutathione; also called Dhb-Erk; Dhb-Erk peptide
